# Publication PMC7826279 (Nucleic Acids Research, 2021)
# T1: Sty1-His (S. pombe, UniProt Q09892 1-349)
# T1 sequence (looked up): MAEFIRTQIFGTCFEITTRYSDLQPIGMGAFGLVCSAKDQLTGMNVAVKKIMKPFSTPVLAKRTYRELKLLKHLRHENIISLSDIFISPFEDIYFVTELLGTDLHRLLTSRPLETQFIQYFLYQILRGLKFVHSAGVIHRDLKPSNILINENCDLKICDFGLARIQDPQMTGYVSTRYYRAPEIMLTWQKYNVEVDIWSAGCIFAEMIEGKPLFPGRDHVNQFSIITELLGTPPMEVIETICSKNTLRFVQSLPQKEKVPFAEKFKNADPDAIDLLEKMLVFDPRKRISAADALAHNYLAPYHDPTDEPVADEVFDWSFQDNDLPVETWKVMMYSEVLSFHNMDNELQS
# T2: Sty1 (K49R)-His (S. pombe, UniProt Q09892 1-349, K49R)
# T2 sequence (looked up): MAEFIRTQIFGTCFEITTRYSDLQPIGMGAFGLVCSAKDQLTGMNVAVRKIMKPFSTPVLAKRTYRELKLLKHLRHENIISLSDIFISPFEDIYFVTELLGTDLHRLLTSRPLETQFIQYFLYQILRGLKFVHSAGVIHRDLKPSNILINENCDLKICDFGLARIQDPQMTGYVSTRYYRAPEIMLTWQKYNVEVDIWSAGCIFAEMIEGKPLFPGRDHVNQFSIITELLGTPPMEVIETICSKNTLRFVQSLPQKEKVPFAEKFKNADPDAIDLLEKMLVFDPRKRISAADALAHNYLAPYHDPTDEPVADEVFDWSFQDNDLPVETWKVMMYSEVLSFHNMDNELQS
# T3: Ssu72-His (S. pombe, UniProt O42868 1-197)
# T3 sequence (looked up): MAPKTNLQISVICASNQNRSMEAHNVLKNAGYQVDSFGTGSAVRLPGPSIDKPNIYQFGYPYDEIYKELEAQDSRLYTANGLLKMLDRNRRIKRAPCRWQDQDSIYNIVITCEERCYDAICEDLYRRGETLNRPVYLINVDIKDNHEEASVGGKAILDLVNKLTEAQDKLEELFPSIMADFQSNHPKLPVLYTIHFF
# What was measured:
# Experiment in all cases: pull-down
# Sty1-His = target: T1, Sty1-His
# Sty1 (K49R)-His = target: T2, Sty1 (K49R)-His
# Ssu72-His = target: T3, Ssu72-His
# phosphorylated CTD-GFP = phosphorylated CTD-GFP (S. pombe, UniProt P36594 1549-1751, phosphorylated (sites not told for this preparation))
# phosphorylated CTD-GFP, sequence (P36594 1549-1751): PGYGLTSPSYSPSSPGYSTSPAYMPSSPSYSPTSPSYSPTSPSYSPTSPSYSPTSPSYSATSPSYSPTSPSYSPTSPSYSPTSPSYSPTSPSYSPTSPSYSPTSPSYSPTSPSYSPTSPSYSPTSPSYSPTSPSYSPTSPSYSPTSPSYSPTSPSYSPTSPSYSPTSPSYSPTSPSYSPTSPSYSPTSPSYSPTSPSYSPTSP
binding result (Sty1-His),binding result (Sty1 (K49R)-His),binding result (Ssu72-His),binding result (phosphorylated CTD-GFP),Binder
binds,binds,–,–,GST-Rpb1-CTD (domain or fragment) not shown
–,–,binds,binds,"Pin1-GST (natural protein, S. pombe, UniProt O74448 1-175, looked up) MSNTGLPKPWIVKISRSRNRPYFFNTETHESLWEPPAATDMAALKKFIANELQESVTPTEASNSPKIRASHLLVKHRESRRPSSWKEEHITRSKEEARKLAEHYEQLLKSGSVSMHDLAMKESDCSSARRGGELGEFGRDEMQKPFEDAAFALKPGEISGVVETSSGFHIIQRHA"
–,–,–,binds,"Pin1 (S79E)-GST (natural protein, S. pombe, UniProt O74448 1-175, looked up) MSNTGLPKPWIVKISRSRNRPYFFNTETHESLWEPPAATDMAALKKFIANELQESVTPTEASNSPKIRASHLLVKHREERRPSSWKEEHITRSKEEARKLAEHYEQLLKSGSVSMHDLAMKESDCSSARRGGELGEFGRDEMQKPFEDAAFALKPGEISGVVETSSGFHIIQRHA"
